Here are results for two molecules from patent publication US20150025225A1 (SHIONOGI, published 2015).

Common to all, as to assay: ELISA-type titration, A450 against antibody concentration; protocol not described in the text
A general note: ELISA stands for enzyme-linked immunosorbent assay.

In assay [1] the target is T1, Baboon EL-C2 tag (baboon, UniProt Q9Y5X9 21-500 (human entry), limits assumed).
T1 construct: used as heparin extract of transfected HEK293F cells; also called baboon EL heparin extract
T1 chain: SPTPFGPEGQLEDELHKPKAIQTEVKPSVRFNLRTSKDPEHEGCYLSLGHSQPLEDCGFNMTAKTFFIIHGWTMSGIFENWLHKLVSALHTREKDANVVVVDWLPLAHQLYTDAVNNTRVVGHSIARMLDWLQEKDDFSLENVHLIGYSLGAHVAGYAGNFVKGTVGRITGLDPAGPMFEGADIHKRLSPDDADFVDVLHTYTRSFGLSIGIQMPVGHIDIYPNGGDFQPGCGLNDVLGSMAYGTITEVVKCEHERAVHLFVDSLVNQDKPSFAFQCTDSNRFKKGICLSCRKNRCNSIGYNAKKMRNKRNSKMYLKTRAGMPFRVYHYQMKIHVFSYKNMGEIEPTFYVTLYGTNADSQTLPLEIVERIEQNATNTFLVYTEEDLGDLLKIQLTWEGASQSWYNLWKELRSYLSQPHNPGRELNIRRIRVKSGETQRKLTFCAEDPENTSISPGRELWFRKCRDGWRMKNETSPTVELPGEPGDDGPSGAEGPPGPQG

Assay [2] has as its target T2, cynomolgus monkey EL-C2 tag (cynomolgus monkey, UniProt Q9Y5X9 21-500 (human entry), limits assumed).
T2 construct: used as heparin extract of transfected HEK293F cells; also called cynomolgus EL
T2 chain: T1 chain with E12A, E141G

Assay [3] deals with T1, Baboon EL-C2 tag.
In assay [4] the target is T3, mouse EL-C2 tag (mouse, UniProt Q9WVG5 21-500).
T3 construct: used as heparin extract of transfected HEK293F cells
T3 sequence: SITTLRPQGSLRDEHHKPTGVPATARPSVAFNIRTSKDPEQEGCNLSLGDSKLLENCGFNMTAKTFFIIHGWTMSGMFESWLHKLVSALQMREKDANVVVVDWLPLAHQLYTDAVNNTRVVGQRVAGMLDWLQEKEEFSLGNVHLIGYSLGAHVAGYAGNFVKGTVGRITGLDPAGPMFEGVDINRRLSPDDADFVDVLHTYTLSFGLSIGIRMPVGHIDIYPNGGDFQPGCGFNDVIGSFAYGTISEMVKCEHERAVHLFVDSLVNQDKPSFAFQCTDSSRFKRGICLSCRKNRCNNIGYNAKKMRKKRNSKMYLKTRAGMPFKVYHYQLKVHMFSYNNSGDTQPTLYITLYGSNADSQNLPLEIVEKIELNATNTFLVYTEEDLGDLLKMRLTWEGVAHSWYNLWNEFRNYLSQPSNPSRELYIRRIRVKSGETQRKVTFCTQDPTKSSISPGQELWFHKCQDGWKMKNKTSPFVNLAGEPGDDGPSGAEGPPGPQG

Assay [5] concerns the target T4, human EL[331-459]-mouse EL-C2 tag (human/mouse chimera, UniProt Q9WVG5 21-500 (mouse entry)).
T4 construct: used as heparin extract of transfected HEK293F cells; also called human-mouse chimera EL; Human-Mouse chimeric EL
T4 chain: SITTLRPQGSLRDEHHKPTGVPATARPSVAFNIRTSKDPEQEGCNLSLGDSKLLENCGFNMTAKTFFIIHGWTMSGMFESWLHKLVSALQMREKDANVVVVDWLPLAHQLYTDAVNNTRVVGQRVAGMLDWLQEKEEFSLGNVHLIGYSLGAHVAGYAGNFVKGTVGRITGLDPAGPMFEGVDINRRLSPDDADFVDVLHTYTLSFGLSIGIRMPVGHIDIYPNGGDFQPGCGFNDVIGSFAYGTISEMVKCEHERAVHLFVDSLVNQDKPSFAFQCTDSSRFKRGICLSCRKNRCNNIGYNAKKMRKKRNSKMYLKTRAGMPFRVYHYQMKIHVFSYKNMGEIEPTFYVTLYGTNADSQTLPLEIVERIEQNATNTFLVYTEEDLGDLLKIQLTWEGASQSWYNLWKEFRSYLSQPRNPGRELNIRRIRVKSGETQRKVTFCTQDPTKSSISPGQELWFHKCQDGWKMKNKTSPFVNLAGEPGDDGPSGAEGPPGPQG

Assay [6] deals with T5, rabbit EL-C2 tag (rabbit).
T5 construct: used as cell lysate or heparin extract; also called rabbit EL lysate; rabbit EL enzyme solution
T5 chain: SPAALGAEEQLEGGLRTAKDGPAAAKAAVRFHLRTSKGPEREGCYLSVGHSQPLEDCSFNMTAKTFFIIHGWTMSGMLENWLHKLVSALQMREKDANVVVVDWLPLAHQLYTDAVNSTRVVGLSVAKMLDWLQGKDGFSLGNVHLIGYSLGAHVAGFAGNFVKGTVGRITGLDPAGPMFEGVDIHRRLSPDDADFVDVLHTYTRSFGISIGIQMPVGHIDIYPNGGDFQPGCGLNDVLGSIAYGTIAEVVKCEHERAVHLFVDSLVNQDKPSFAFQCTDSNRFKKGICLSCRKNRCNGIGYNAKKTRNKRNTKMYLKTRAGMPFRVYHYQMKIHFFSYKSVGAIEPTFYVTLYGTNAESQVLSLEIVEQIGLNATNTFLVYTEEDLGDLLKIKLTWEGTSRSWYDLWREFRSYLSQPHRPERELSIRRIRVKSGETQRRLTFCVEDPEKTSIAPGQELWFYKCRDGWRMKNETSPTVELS

Where a chain is given by its changes, count along the chain named. Read-outs that look alike come from different tables or passages of the source.

B1: 12B10 antibody (antibody, IgG2a, V domains shown)
VH: QVTLKESGPGILKPSQTLSLTCSFSGFSLSTSGMGVGWIRQPSGKGLEWLAHIWWNDEKYYNPSLKSQLTISKDTSRNQVFLKITSVDTADTATYYCARSYDGSPFPSWGQGTLVTVSA
VL: DIQMTQSPSSLSASLGGKVTITCKASQDINKYIAWFQHKPGKGPRLLMAYPFTLQPGIPSRFSGNGSGRDYSFSISNLEPEDIATYYCLQYDNLLWTFGGGTRLEIK
Turning to B1, the results for the “EC50 (read off the curve)” value in assay [1] and in assay [2] were around 20 ng/mL and around 7 ng/mL, respectively.

B2: 47B2 antibody (antibody, IgG2a, V domains shown)
VH: QVALKESGPGILQPSQTLSLTCSFSGFSLSTSGMGVGWIRQPSGKGLEWLAHIWWHGNKYYSTGLKSRLTISKDTSNNQVFLKIASVDTADTATYYCARISAGYPLDYWGQGTSVTVSS
VL: DIQMTQSPSSLSASLGGKVTITCKASQDINKYIVWYQHKPGKGPRLLIHYTSTLQPGFPSRFSGSGSGRDYSLSITNLEPEDIATYYCLQYDNLLWTFGGGTKLEIK
As for B2, the figures for the “EC50 (read off the curve)” value in assay [3], in assay [5] and in assay [6] were around 10 ng/mL, around 10 ng/mL and around 7 ng/mL, respectively. Moreover, the binding result in assay [4] is on record as “binds”.
